Data published in patent publication US20090156489A1 (Genentech, published 2009).

Legend:
[1] = target: T1, DCC expressed on COS cells (human, UniProt P43146 26-1447); assay: cell surface binding assay on transfected COS7 cells, fluorescence microscopy (data not shown)
T1 construct: whole, on cells
Description: (§1) The resultant fusion proteins were expressed and used in binding assays over a panel of ˜400 putative cell surface transmembrane or GPI-anchored cell surface human proteins that were transiently expressed in COS7 cells. Purified ECD-Fc fusion proteins (0.5 μg/ml) or the crude baculovirus lysates were added to transiently transfected COS7 cells for 1-2 hours at room temperature. After 3 rinses with cold phosphate buffered saline (PBS), the bound protein was cross-linked to the cell surface with 4% paraformaldehyde. The bound Fc fusion protein was detected by biotinylated anti-human IgGFc and R-phycoerythrin-conjugated streptavidin (Jackson Immunoresearch). Cell surface staining was visualized by fluorescent microscopy and images were taken with the Penguin 800CL digital camera system (Pixera).
(§2) Although the NGL-1 and Netrin-G1 interaction appeared to be specific within the context of the screen, the classical Netrins and their known receptors, DCC and Unc5, were not included in the screen. Thus whether NGL-1 also interacts with Netrin-1 and its receptors was determined. Using the same cell surface binding assay, NGL-1, Netrin-G1, or Netrin-1 were expressed in COS7 cells (rows in FIG. 1a-i) and their ability to bind the IgG Fe fusion protein of NGL-1, Netrin-G1, or DCC (columns in FIG. 1a-i) was determined. […]

[2] = target: chicken Netrin-1 expressed in COS7 cells (chicken, UniProt Q90922 26-606); assay: cell surface binding assay on transfected COS7 cells, fluorescence microscopy
Description: as §1, §2

T1 sequence (P43146 26-1447): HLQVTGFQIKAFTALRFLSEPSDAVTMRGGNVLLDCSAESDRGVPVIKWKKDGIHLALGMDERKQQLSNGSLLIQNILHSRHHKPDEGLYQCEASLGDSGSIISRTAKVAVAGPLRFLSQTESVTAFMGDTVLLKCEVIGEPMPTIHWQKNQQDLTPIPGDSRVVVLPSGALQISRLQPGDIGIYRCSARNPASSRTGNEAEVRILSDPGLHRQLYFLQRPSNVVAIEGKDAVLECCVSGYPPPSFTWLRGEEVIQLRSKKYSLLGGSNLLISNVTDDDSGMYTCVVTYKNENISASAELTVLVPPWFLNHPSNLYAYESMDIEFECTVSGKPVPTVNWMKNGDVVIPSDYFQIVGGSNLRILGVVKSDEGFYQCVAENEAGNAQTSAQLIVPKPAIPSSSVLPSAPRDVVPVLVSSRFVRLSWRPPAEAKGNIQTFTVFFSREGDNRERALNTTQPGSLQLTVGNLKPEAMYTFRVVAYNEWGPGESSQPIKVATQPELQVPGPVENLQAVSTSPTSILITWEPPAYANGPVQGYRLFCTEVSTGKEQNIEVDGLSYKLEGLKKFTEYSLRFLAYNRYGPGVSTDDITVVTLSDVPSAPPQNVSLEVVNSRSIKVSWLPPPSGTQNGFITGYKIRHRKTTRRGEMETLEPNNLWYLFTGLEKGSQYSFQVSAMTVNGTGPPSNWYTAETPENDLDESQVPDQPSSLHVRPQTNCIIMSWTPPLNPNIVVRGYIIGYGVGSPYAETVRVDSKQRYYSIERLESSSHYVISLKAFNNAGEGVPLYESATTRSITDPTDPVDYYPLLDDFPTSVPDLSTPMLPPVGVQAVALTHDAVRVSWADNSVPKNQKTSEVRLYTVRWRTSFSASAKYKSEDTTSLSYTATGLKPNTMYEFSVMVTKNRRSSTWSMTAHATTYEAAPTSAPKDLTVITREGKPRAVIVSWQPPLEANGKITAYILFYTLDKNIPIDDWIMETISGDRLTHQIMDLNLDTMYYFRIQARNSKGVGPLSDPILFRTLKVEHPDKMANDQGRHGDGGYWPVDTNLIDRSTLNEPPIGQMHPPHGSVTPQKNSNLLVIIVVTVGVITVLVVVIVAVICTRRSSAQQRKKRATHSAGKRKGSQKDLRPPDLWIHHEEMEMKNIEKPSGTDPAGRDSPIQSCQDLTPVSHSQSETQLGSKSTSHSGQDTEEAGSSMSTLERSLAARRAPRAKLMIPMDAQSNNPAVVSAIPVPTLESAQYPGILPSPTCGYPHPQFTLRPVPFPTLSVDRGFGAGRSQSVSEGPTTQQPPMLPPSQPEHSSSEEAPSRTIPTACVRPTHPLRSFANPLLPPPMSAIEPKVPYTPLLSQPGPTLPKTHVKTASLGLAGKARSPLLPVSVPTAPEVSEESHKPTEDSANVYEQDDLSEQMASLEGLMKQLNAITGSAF

B1: human Netrin-G1-Fc (Fc fusion, UniProt Q9Y2I2-1 29-409, looked up)
chain: HYDLCKTQIYTEEGKVWDYMACQPESTDMTKYLKVKLDPPDITCGDPPETFCAMGNPYMCNNECDASTPELAHPPELMFDFEGRHPSTFWQSATWKEYPKPLQVNITLSWSKTIELTDNIVITFESGRPDQMILEKSLDYGRTWQPYQYYATDCLDAFHMDPKSVKDLSQHTVLEIICTEEYSTGYTTNSKIIHFEIKDRFAFFAGPRLRNMASLYGQLDTTKKLRDFFTVTDLRIRLLRPAVGEIFVDELHLARYFYAISDIKVRGRCKCNLHATVCVYDNSKLTCECEHNTTGPDCGKCKKNYQGRPWSPGSYLPIPKGTANTCIPSISSIGTNVCDNELLHCQNGGTCHNNVRCLCPAAYTGILCEKLRCEEAGSCGS
notes: extracellular domain; also called Netrin-G1-Fc fusion protein; not shown: human IgG1 Fc region
B1: no binding [1]; no binding [2].
